From the NTF2 design screens of Basanta et al. (2020)

Experiment: protease stability score; higher = more stable; yeast display proteolysis, trypsin and chymotrypsin;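 further: relative to predicted unfolded state with 0 unfolded-like and 1 meaning tenfold more protease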

Sequence	protease stability score
DDWEEILREMIERWLKIFLTGDEEQLQRLADPDTRLNFNGREHHGMETLRRWRHRYEEEMRVRRINVKHEEFQGEKIRMDTELHTEVNGVKIITRTELIFIIINGRIKEVEIRVK	0.853
DDWEEVLKDFLKKYFEALHTGNEELFLLMLDPHVKFDWNGQKMVGREKEIETLRREIKSAGVTRIERELEIKDTRLVDGRLRIDLSIHLNFNGRKFEIDVELHLNKINGRWEIESIKYR	1.15
DDWEEVTRRSVEEFIRAIDTGDEDFLRTMVDPDTRVEINGVEVHGMEELMRLFSEHIKKVKNIRFHLEIRHVESQGDKIRIEGHEESNVDGRHRKKSTEMHWIKVDGRWFLHRVILR	1.39
DDWEKLYEELTRLWLKLLITGDEEILIKLMDPHYRYHQGDKELHGRESYAEEVRREYEHARVKIHVERIHVFENHVEVNGELKIEINGRHYSIRTRIHLNIVNGKIKSIEIRTD	1.39
DDWERLYLHLARLWFELILTGDEETIDKMVDPHTRLEIGDFESHGREELRYLFHHMRSHEIRIRSFDTYGDKAIIDGEIDTIINGRRMIVKIRLHVIIINGRVHSIKVEHE	1.08
DDWHEEMREMLELLLRALFTGDEKHLVENLDPNVKIIFDGKDLHGRRDASKLIHEYGVDHITRHKIHDSKFFNGRLDVDGIFDQTVNGRREEVHRRIILLKFDGRWWIHRIEIR	1.63
DDWHEILKHHFDNEVESILTGDEDSIKKMIDPHVRLEVNGREVHGMEEFARVMIEIRFRRIDLRERDIFNGVLHLRLEVDWEYGDKRFETEEEVVYFKVNGRWILESMRVR	1.26
DDWLEDTKRLLEEFRQAINTGDEELLKILFDPHVRMNIDGVELHGRSVLEHFLERYDVIKVRRHHITDLKFQGNYLIIHLKTDIQIDIGDKHYKEEREVEMVVEKVNGRWIIRLMTER	1.4
DDYDHITELALREIERVLHTGDEEDLRRMIDPHVRIDIDGKDIHGWENLFKHIEEERRRFPNLQIDWELKDTRKQGDKIILHGQIHIQQGDKEIERDFTIKAVKINGQWIVKTFHIR	1.63
DDYEKDDKHFLNVFLHMLETGDWEKLEKLADPRVRQDVDGVEYHGMEEAVEVWHRLRHKFKGLTLREVTIHDIRTIDGKIDLDVEFHFDFNGREISRRVIIIVDKINGRWELKSMKEK	0.074
DDYEKSSKVVWQILVRALETGDEEELRDLFDPHVRIQIGEFHFHGWETVHEHMRRADHIIVRDSKSRDIDHQGNKVILHVDLHIEFTYNGVERSTTFRSNMIMVKVNGKWVIEKIHLQ	1.55
DEADRFREFAKRLYLEKSNTGDWEELIRLFDPHARYEYGDKEMHGRDTIDFLREMLGIDRIQLRHVNDHSVDLQGDKIHIDGTVVEEWNGQEYRSRVILILRKVDGRWYLETMHVD	0.409
DEAEEHMRRYSELMMKSFLTGDEHTLRKLADPHTKLIFNGKELHGREEVARVFTWSREELGVDHQDVRHVSVRLVDGRVHVDIILEVNVGDKRFQVHIHLTILKYDGRWFVESVHIEIR	0.285
DEAHEWLKTLADLFFHWMLTGDFEHWIDYLDPDAKIEFEGRSNHGRENIYQLLLELKQEIRVRDYELKDVRIQGEKLLLNVHLHGHIGDKEIRTDTVLRLRVVDGRLKEVHIEIR	1.52
DEAQEIVEFVFKILAEFQETGDEDSLKHLLDPNVRILQGNKELHGRDQNIKRLREELDRFGVDKFRVELRLEHVTIIDGRLHLDMRLNLDVNGVEIRLEVHFVLIKVDGQWSIHEVRFH	1.61
DEARVIFEEFIRQLLHAIRTGDFDLYRHLADPHVQVEIGDKVFWGREVITEFEDDLLRRMGVNHVDMRIRIFEIIDGRIHIVGEHRIDVNGRDEHIDTRVLVHKVDGRWVLRRERRT	0.647
DEATEAWRVVVELIKRANETGDEETRSENMDPETRMSIDGVDFIGREEVIKHVHKVKNMRIKHVEINDVRIQGDKIHVRGTLHGTVNGRETRIDVVLYVWKINGQWIIHSIEFI	1.5
DEATEKAKKAYELWMHSLKTGDEHHLKNLMDPDVRVIIDGVDMHGWEAAHFERRRFDHIHRVHVDHYEFQGNKSIWDGTVDGKVGDKEHRNRRIIIMNVVDGRYKSIHLHVE	0.991

Sequence	protease stability score
DEATKDAERIIEMFIRAIETGDEKVFKRLLDPNVRLVVDGKEFHGREKFIEWLRRIDVTHQVHFRLHDSDMQGDKLHLDSSEIHDVKYNGVRFVDHYRVHLQIHKFDGRWHLENIIIR	1.51
DEATKSAEIAVRLLKKTQDTGNEELERKLVDPHVRVDVNGRESHGWEHLVEIIREMRVHSLTVTRSEVQGNKVFNDGILDGEINGVRVHIYIHIIIEKINGQWVIRELRFH	0.803
DEDAHLIEHLVHLMLHATNTGDEDILKDLMDPNMKIQIGDKEFHGREEFEEMHRRADHLETTDWKLHSVDIQGDKIHLDTRVDRVIIINGKITREDTRTELDVRKIDGRWVVTRISVE	1.27
DEDDDLALHMFELLLHVWTTGDERIMHELLDPHARLDFNGRTFHGREAFIHYMHEIFRHIRINDSTVRHIRVIDGRLDIESHVDIRVGDKRFEMETHLIVLKVDGKWQVTLYKLS	1.4
DEDDEAAEMAVRFFIEILLTGNENIHSKLLDPNVKVNIGEFESIGRKEVEKTFKEFVHHMWIRHIEVHKWSVYDGQVDVESRLDGQVNGQHVNVEVLIIIVKINGKWFLRSLDFR	1.71
DEDDEAAQEAVKIVEEVTKTGNWRVLLELLDPHTRVHTEHHELHGMEEYVREVQKMMQDFGVTKVEVRFHEIIIIGEKIHMRVTIHVNGVTLDTEVVSLKYNGRWYLHTLRMK	1
DEDDEAVKRFIDEFVHSMRTGDEEKLYRLADPHVRSVIDGVEFVGMHWLTTELHHLRVQRLEFEFKDIHFQGDKAHVRGHLILTLHFNGREYVVRREVELIILKINGRWHLHEFIWR	1.68
DEDDEDADNAIRLIVHSMLTGNEDFFSRLLDPNVRLDYNGVEFIGREDVVRFWNQMRFEFRVEVRRTSSQGDKVNWDIRLRIILHFNGKRHDRLHDTVLISRKYNGKWHVEQIEVR	1.54
DEDDEDSEEASRRMVETHLTGDEDKQSKMMDPNVKFLFNGVEFHGWELLHKIWTEFGIKHHQLKSVEVRNINGQVRVHVDGVIDVNGVSLKSELNFVAEKVDGRWRVKRIEIHIR	1.58
DEDDEDTRRLLKLLSDAEETGDEELLRHLADPHVRVHVGDKEWHGWDAFVRFLRHIRIETFHVRRIRVQGDKVDVDGQTVVTINGRRHELKTTIILIKIDGQWVIEKLTIH	1.79
DEDDEFERLFWKKWVDALRTGNEEIIRKMVDPNVKIVFNGKELHGREAVDIVLKRIDHIDDIKLRHSRVVDGRVEITTKIHMKVGDKSIDSETHMSFEKIDGRWIITEMFFV	2.59
DEDDEFMKRLAEEVIKNLHTGDWESLVHLMDPNALFEFDGVRNHGREQTDRFWEEVHERYPNVREKWDIHTIDVFNGRAKVDSRITFHFDGRDYVHKSEFHLIVFNGKVKSVHIHIR	0.158
DEDDEHSEEIAKMWMHLVHTGDFDSETKLVDPHVKFKIDGREIIGREVFMQLMIELRHILRDSKIDDLNRQGEFLHVHGQVHGELIIGDKNFEINHKVEFIIIKVNGRWFAHTIIFR	1.64
DEDDEHTHEMLKLVITAINTGDFEKWRHMADPNVRSDIDGQEVHGRETIIEVWRRIEKELGIENVEVHTRRVEVINGVAHIDGHIRFNGRTHKVRIEVYLINGKIQEFVLSRH	1.45
DEDDEKEKFLLELLLEALKTGDWQIFEDLADPHMKFIFNGREYHGMETFSRLMEEFLKRFPNLRIRRIEIEDHHKQGNKVELDARLYSSQGNKRLNHKMILISEKINGRWLIHSLSIE	2.61
DEDDELAERFFRFWLEFVLTGDEDSSSHLLDPDVRTKYNGVDFHGMESHSKLLLELRIKDFRFTRIRIINGRLEIHGRMHQEIDGKKVDTTVTIDSIKINGKWRVKTINIG	1.73
DEDDELEDKFEEILRYSLHTGDWEEWRKRVDPHVKLIINGREIIGMERAAKFFIDLERKLGVDVKHHEIRHEDKQGDKLHLETRVELRQGDKVIILHMHLHLEKINGQWIIREVRFD	1.47
DEDDELKKTAVHDFTRDIATGDEESLHKLVDPHVRTTFDGQDLIGREHMWEHIHRLLRRYKNIRSEHIHIREIHVVDGVVESHTHIHMRIGEFKFIFNVHVFILKVDGVWFVHEAHYV	0.886
